B1: M. musculus p31(comet):C-MAD2^R133A complex (complex)
chain 1: MAASGEEDMSELSPAAAPNLDWYEKPEETHAPEVDLETVIPPAQEPSNPAEPFCPRDLVPVVFPGPVSQEDCCQFTCELLKHILYQRHQLPLPYEQLKHFYRKVPQAEDTARKKAWLATEARNRKCQQALAELESVLSHLRDFFARTLVPQVLILLGGNALSPKEFYELDLSRLAPFGVDQGLNTAACLRRLFRAIFLADPFSELQTPPLMGTIVMVQGHRDCGEDWFQPKLNYRVPSRGHKLTVTLSCGRPSVPAMASEDYIWFQAPVTLKGFHE
chain 2: MAQQLAREQGITLRGSAEIVAEFFSFGINSILYQRGIYPSETFTRVQKYGLTLLTTTDPELIKYLNNVVEQLKEWLYKCSVQKLVVVISNIESGEVLERWQFDIECDKTAKEEGVRREKSQKAIQDEIRSVIAQITATVTFLPLLEVSCSFDLLIYTDKDLVVPEKWEESGPQFITNCEEVRLRSFTTTIHKVNSMVAYKTPVND
notes: p31(comet), M. musculus, full length; MAD2, M. musculus, full length, R133A, closed conformer; Heterodimer of m12 and m9; also called p31(comet):MAD2; source: formed from separately purified proteins (E. coli Rosetta 2 (DE3) pLysS); not shown: His6, N-terminal, cleaved; copies: 1 + 1

Key:
PCH-2 = biological target: T1, PCH-2 (Caenorhabditis elegans, UniProt Q09535); experiment: X-ray crystal structure, […] Å; format: binding; conditions: ATPase active site of chains B and E; ADP co-purified, no nucleotide added
T1 construct: full-length (424 residues), N-terminal His6 tag removed with TEV protease, E. coli Rosetta 2 (DE3) pLysS
T1 sequence (Q09535 1-424): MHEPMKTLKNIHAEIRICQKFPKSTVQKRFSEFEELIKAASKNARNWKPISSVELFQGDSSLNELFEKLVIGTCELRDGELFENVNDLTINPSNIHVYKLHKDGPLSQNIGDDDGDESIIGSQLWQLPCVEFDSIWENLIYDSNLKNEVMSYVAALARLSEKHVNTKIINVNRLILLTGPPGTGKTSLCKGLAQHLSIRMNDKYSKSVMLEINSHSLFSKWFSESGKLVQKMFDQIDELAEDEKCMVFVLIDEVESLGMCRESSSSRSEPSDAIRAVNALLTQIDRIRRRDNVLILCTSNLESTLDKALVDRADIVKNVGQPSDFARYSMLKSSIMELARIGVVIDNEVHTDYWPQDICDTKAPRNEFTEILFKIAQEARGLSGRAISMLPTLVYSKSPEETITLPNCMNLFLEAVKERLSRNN

M. musculus TRIP13^E253Q [1] = biological target: T2, M. musculus TRIP13^E253Q (M. musculus, UniProt Q3UA06 1-432, E253Q); experiment: SEC-MALS; TRIP13^E253Q with p31(comet) and C-MAD2^R133A, protocol as for the size exclusion analysis; conditions: both partners purified
T2 construct: TRIP13, M. musculus, full length, Walker B mutation E253Q; also called Walker B mutant; ATP hydrolysis-defective TRIP13; source: E. coli Rosetta 2 (DE3) pLysS, purified (Ni-NTA, Hitrap Q ion exchange, Superdex 200 SEC); not shown: His6, N-terminal, cleaved
T2 sequence (looked up): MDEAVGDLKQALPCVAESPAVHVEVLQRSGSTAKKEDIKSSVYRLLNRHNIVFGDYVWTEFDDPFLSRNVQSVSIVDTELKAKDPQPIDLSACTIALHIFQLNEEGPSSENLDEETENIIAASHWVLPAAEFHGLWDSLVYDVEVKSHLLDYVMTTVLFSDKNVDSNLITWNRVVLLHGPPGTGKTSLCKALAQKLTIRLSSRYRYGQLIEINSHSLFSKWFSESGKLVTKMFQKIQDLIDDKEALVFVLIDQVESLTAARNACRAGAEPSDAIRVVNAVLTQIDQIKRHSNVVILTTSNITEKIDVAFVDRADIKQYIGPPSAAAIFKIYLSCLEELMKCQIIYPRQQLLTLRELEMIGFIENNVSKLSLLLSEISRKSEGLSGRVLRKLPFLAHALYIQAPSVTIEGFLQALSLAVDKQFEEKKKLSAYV

M. musculus TRIP13^E253Q [2] = biological target: T2, M. musculus TRIP13^E253Q; experiment: SEC; equimolar (10 nanomoles each) TRIP13^E253Q, p31(comet) and C-MAD2^R133A in 300 μl, 20 mM Tris-HCl pH 7.5, 300 mM NaCl, 2 mM ATP, on ice 30 min; Superdex 200 Increase 10/300 GL with 0.1 mM ATP; Coomassie gels of fractions; conditions: both partners purified

Molecule | X-ray crystal structure, 2.3 Å (PCH-2) | stoichiometry N (M. musculus TRIP13^E253Q [1]) [copy per TRIP13 hexamer] | stoichiometry N (M. musculus TRIP13^E253Q [2])
Nc1ncnc2c1ncn2[C@@H]1O[C@H](COP(=O)(O)OP(=O)(O)O)[C@@H](O)[C@H]1O [ADP] | two subunits in the hexamer (chains B and E) are bound to ADP | – | –
B1 | – | ~1 | ~6 TRIP13^E253Q : p31(comet):MAD2 (molar ratio)
